Experimental findings from patent US20180092966A1 (CSL, published 2018) are described below.

In assay [1] the target is T1, VWF-FP N1134C mutant (albumin-fused von Willebrand Factor) (human).
T1 construct: Stably expressed in CHO cells with furin co-transfected; also called VWF-FP mutant N1134C; Cys residue at VWF aa position 1134; not shown: linker between VWF and albumin, made in analogy to WO 2009/156137
As to the kind of experiment: covalent-FVIII ELISA over FVIII antigen ELISA. For orientation: ELISA stands for enzyme-linked immunosorbent assay.

Assay [2] has as its target T1, VWF-FP N1134C mutant (albumin-fused von …). As to the kind of experiment: covalent-FVIII ELISA over FVIII activity assay.
For assay [3] the target is unchanged. The assay can be described thus: ELISA of co-expression supernatant: anti-VWF capture, 350 mM CaCl2 wash, anti-FVIII detection. As for the experimental part: Cell culture supernatant samples (10 ml) from transient transfections were concentrated with Amicon Ultracell-30K (Millipore UFC903024; 3000 g centrifugation). FVIII covalently attached to VWF-FP in culture supernatant (concentrates) was determined by a standard ELISA. Briefly, microplates were incubated with 100 μL per well of the capture antibody (rabbit anti human VWF-IgG, Dako A0082 [Dako, Hamburg, Germany], diluted 1:2000 in buffer A [Sigma C3041, Sigma-Aldrich, Munich, Germany]) overnight at ambient temperature. After washing plates three times with buffer B (Sigma T9039), each well was incubated with 200 μL buffer C (Sigma T6789) for 1.5 hours at ambient temperature (blocking). After another three wash steps with buffer B, serial dilutions of the test sample in buffer B as well as serial dilutions of a control preparation of covalently linked FVIII-VWF-FP, (2.0-0.03 arbitrary U/ml in buffer B (we call these “arbitrary units” as they may not correspond to the standard FVIII units as determined using Standard Human Plasma); volumes per well: 100 μL) were incubated for 1.5 hours at ambient temperature. After three wash steps with buffer B, 200 μL of 350 mM CaCl₂ were added to each well and incubated for 1 hour at ambient temperature. CaCl₂ was removed (without washing) and additional 200 μl were added to each well and incubated further for 1 hour. After three wash steps with buffer B 100 μL of a 1:2 dilution in buffer B of the detection antibody (Detecting Antibody for FVIII:C, peroxidase labelled, Cedarlane CL20035K-D) were added to each well and incubated for 1 hour at ambient temperature. After three wash steps with buffer B, 100 μL of substrate solution (OUVF, Siemens Healthcare Diagnostics) were added per well and incubated for 15 minutes at ambient temperature in the dark. Addition of 100 μL undiluted stop dilution (OSFA, Siemens Healthcare Diagnostics) prepared the samples for reading in a suitable microplate reader at 450 nm wavelength. Concentrations of the test samples were then calculated using the standard curve with the control preparation.

T1 sequence (chain, as listed by the source N1134C N1134C): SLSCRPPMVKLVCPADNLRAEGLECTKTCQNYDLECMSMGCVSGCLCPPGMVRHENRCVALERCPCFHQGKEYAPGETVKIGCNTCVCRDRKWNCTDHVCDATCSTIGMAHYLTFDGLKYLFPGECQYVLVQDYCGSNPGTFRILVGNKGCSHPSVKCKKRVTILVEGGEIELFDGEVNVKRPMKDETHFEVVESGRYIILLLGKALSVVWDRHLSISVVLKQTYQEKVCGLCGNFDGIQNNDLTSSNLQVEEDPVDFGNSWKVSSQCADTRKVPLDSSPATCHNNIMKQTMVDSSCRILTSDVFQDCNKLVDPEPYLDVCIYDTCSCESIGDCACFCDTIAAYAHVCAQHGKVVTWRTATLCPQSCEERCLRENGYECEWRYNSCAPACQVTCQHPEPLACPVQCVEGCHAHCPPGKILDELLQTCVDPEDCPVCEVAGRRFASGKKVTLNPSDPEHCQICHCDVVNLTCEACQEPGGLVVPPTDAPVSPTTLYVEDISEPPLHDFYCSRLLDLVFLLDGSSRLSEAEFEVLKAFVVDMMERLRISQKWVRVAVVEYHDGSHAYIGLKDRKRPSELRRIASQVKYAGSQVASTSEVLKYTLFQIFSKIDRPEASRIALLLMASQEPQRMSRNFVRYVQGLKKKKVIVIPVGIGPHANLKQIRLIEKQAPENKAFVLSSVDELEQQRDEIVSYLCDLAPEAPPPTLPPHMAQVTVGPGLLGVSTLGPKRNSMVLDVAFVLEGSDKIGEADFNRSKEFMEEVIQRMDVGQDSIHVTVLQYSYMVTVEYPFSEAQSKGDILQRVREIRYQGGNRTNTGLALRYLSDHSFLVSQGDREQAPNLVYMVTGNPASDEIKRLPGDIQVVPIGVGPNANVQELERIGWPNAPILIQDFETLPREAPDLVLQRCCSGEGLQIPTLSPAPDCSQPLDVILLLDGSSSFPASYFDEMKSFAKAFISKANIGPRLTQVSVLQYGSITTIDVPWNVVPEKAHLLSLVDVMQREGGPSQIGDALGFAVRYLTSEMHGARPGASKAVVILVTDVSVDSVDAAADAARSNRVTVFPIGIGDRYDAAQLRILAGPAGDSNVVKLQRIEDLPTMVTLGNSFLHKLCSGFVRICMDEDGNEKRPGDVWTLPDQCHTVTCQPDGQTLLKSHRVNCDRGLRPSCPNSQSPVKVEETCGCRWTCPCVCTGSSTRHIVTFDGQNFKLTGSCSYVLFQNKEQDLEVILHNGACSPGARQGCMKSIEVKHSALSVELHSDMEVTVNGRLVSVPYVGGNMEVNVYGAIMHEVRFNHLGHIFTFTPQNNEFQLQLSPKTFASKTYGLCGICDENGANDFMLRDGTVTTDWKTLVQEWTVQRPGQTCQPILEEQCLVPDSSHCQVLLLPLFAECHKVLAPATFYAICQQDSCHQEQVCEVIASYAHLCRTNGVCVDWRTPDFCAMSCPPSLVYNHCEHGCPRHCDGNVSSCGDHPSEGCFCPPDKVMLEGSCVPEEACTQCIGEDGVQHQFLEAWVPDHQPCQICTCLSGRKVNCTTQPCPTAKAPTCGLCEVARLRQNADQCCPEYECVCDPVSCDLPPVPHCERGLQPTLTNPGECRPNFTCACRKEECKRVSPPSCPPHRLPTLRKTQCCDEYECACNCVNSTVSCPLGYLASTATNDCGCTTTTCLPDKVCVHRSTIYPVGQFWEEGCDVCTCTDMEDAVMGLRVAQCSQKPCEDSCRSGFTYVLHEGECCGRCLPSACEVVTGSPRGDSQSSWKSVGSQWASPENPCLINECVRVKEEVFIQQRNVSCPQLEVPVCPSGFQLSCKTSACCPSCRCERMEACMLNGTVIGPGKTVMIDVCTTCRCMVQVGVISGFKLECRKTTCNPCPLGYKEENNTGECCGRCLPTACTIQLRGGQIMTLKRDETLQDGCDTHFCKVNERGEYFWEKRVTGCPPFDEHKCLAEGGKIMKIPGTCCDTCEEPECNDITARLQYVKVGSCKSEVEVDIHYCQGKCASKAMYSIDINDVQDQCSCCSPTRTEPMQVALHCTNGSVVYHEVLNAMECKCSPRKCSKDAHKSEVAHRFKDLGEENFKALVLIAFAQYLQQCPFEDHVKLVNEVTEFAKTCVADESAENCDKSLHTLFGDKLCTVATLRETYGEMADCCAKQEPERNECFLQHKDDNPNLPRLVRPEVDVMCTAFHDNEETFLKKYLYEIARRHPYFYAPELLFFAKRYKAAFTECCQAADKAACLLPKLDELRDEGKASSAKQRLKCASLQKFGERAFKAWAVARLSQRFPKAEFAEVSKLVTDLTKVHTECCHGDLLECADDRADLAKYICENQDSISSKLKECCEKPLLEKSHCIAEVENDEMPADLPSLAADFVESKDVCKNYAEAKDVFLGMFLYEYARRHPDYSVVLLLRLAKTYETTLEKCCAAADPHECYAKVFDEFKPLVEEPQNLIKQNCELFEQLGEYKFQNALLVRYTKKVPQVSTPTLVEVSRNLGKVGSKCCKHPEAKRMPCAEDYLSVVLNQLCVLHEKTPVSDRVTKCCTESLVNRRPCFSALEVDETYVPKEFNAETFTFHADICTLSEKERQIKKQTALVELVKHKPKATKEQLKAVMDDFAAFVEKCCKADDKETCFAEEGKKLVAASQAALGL

B1: Factor VIII SingleChain Q1656C mutant (other)
chain: ATRRYYLGAVELSWDYMQSDLGELPVDARFPPRVPKSFPFNTSVVYKKTLFVEFTDHLFNIAKPRPPWMGLLGPTIQAEVYDTVVITLKNMASHPVSLHAVGVSYWKASEGAEYDDQTSQREKEDDKVFPGGSHTYVWQVLKENGPMASDPLCLTYSYLSHVDLVKDLNSGLIGALLVCREGSLAKEKTQTLHKFILLFAVFDEGKSWHSETKNSLMQDRDAASARAWPKMHTVNGYVNRSLPGLIGCHRKSVYWHVIGMGTTPEVHSIFLEGHTFLVRNHRQASLEISPITFLTAQTLLMDLGQFLLFCHISSHQHDGMEAYVKVDSCPEEPQLRMKNNEEAEDYDDDLTDSEMDVVRFDDDNSPSFIQIRSVAKKHPKTWVHYIAAEEEDWDYAPLVLAPDDRSYKSQYLNNGPQRIGRKYKKVRFMAYTDETFKTREAIQHESGILGPLLYGEVGDTLLIIFKNQASRPYNIYPHGITDVRPLYSRRLPKGVKHLKDFPILPGEIFKYKWTVTVEDGPTKSDPRCLTRYYSSFVNMERDLASGLIGPLLICYKESVDQRGNQIMSDKRNVILFSVFDENRSWYLTENIQRFLPNPAGVQLEDPEFQASNIMHSINGYVFDSLQLSVCLHEVAYWYILSIGAQTDFLSVFFSGYTFKHKMVYEDTLTLFPFSGETVFMSMENPGLWILGCHNSDFRNRGMTALLKVSSCDKNTGDYYEDSYEDISAYLLSKNNAIEPRSFSQNSRHRSTRQKQFNATTIPENTTLCSDQEEIDYDDTISVEMKKEDFDIYDEDENQSPRSFQKKTRHYFIAAVERLWDYGMSSSPHVLRNRAQSGSVPQFKKVVFQEFTDGSFTQPLYRGELNEHLGLLGPYIRAEVEDNIMVTFRNQASRPYSFYSSLISYEEDQRQGAEPRKNFVKPNETKTYFWKVQHHMAPTKDEFDCKAWAYFSDVDLEKDVHSGLIGPLLVCHTNTLNPAHGRQVTVQEFALFFTIFDETKSWYFTENMERNCRAPCNIQMEDPTFKENYRFHAINGYIMDTLPGLVMAQDQRIRWYLLSMGSNENIHSIHFSGHVFTVRKKEEYKMALYNLYPGVFETVEMLPSKAGIWRVECLIGEHLHAGMSTLFLVYSNKCQTPLGMASGHIRDFQITASGQYGQWAPKLARLHYSGSINAWSTKEPFSWIKVDLLAPMIIHGIKTQGARQKFSSLYISQFIIMYSLDGKKWQTYRGNSTGTLMVFFGNVDSSGIKHNIFNPPIIARYIRLHPTHYSIRSTLRMELMGCDLNSCSMPLGMESKAISDAQITASSYFTNMFATWSPSKARLHLQGRSNAWRPQVNNPKEWLQVDFQKTMKVTGVTTQGVKSLLTSMYVKEFLISSSQDGHQWTLFFQNGKVKVFQGNQDSFTPVVNSLDPPLLTRYLRIHPQSWVHQIALRMEVLGCEAQDLY
notes: Single-chain FVIII with partial B-domain deletion; also called FVIII-SC Q1656C; Cys residue at FVIII aa position 1656
Regarding B1, the “ratio covalent FVIII/Total FVIII antigen” value in assay [1] stood at 1. Besides, the “ratio covalent FVIII/Total FVIII activity” value in assay [2] was 0.44. Further, the “covalent FVIII” value in assay [3] came out at 435 amU/ml.
